# According to publication PMC4824110:
# T1: Rrp41 D182A (catalytically inactive);Rrp42 (Sulfolobus solfataricus;Sulfolobus …, UniProt Q9UXC2;Q9UXC0 ;, D182A|)
# T1 sequence 1: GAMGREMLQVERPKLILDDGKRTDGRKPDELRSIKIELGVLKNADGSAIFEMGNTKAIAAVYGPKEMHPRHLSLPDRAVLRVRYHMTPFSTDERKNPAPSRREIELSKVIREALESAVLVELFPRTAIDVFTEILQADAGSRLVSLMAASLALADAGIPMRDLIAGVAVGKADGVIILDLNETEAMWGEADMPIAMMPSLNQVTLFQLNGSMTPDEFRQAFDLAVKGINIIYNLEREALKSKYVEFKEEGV
# T1 sequence 2: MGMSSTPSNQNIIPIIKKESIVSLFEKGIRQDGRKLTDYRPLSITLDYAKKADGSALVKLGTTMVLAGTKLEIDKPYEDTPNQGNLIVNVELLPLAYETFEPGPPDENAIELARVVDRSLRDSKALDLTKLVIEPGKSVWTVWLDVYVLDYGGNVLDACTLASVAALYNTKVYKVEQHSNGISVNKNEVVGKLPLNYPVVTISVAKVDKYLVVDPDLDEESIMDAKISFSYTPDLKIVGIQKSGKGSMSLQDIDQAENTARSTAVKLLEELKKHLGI
# Biological target: T1, Rrp41 D182A (catalytically …)
# Experiment: fluorescence anisotropy
binder,measurement,value
"fluorescent 32A (FA RNA) (structured_RNA, 4-thiouridine at position 43) RNA: GCCCCCCCCGAAAGGGGGGGGAAAAAAAAAAAAAAAAAAAAAUAAAAAAAAAAAGCU",Kd,11.7 ± 0.9 nM
